Source: patent publication US7301005B2, “Immunomodulatory peptides derived from heat shock proteins and uses thereof” (priority 2000, dated 2007)

Columns and labels:
RA patients = test: Phase I clinical trial of mucosal tolerization to dnaJP1; format: in vivo, human; conditions: 15 RA patients, by mouth, 6 months
Method: FIGS. 26A to 26E show the results of treatment-induced modulation of T cell responses to dnaJP1. […] Evaluation was performed at monthly intervals. Controls included PHA as a general mitogen and dnaJpv (SEQ ID NO:28). Evaluation by FACS at monthly intervals of intracellular cytokine production (pro-inflammatory—FIGS. 26 B, C and D; toleragenic—FIG. 26E) by PBMC of the patients who were responsive at the screening. Results are expressed as % CD3+ cells in dnaJP1 stimulated/unstimulated cultures.
In the Phase I clinical trial, 15 RA patients were treated with three different doses of dnaJP1 (four times per day, by mouth) for 6 months. Entry criteria required clinically active disease and pro-inflammatory T cell responsiveness in vitro to the peptide.

[1] = test system: SFMC from patients with oJIA; test: Proliferative response of SFMC incubated with dnaJ and restimulated with autologous feeder cells plus peptide; format: cell-based, human; conditions: persistent n=16, extended n=15; p=0.05
Method: Results, expressed as stimulation index (SI), are shown as mean+SD.
In order to identify possible relevant epitopes on the bacterial dnaJ protein, PBMC and SFMC of patients with oJIA were incubated for 72 hr with dnaJ, and restimulated with autologous feeder cells the in presence or absence of selected E. coli derived MHC class II binder peptides for 96 hr.
(§1) In order to evaluate whether human homologous peptides could be the target of cross-recognition leading to self reactivity, human peptides derived from regions of HSJ1, HDJ1, or HDJ2 having sequence homology with E. coli dnaJ were studied. SFMC of 14 patients with oJIA presenting a SI to the recombinant E. coli hsp dnaJ greater than 3 were restimulated for 96 hr with autologous cells in presence or absence of human peptide 2, 3, or 5, which are homologs of bacterial peptide 4; human peptide 20, 21, or 23, which are homologs of bacterial peptide 22; or human peptide 164, 167, or 176, which are homologs of bacterial peptide 174. SFMC proliferative responses, pro-inflammatory cytokine production, and anti-inflammatory IL-4 levels were overall similar between the peptides derived from human dnaJ proteins and the homologous bacterial peptides.
Results are expressed as SI or pg/ml (mean+SD). […]
To explore the possible correlation of clinical features with the development of peptide-induced immune modulation, oJIA patients were grouped according to the course of disease, including those with persistent disease (n=16), and those with extended disease (n=15) o-JIA. (FIG. 25).

[2] = test system: SFMC from patients with persistent oJIA; test: FACS analysis of CTLA+/CD25/CD4 positive cells after peptide stimulation; format: cell-based, human; conditions: FIG. 24A
Text: “TC” indicates tissue culture not stimulated. Bars represent SD.
FACS analysis was used to evaluate the percent of CTLA+/CD25/CD4 positive cells following stimulation of representative SFMC from patients with persistent oJIA with non-homologous human peptide 134. The % of CTLA+/CD25/CD4 positive cells, which are believed to have a regulatory function, was higher in the peptide treated cells as compared to cells maintained under control conditions (FIG. 24A). Expansion of the regulatory cells in response to peptide 134 correlated well with production of IL-10 in the same culture conditions (FIG. 24B).

[3] = test system: SFMC from patients with oJIA; test: Cytokine production in culture supernatants of SFMC incubated with dnaJ and restimulated with autologous feeder cells plus peptide; format: cell-based, human
Text: Results are expressed as pg/ml (mean+SD).
Cytokine production to the same peptides was examined in culture supernatants of SFMC from patients with oJIA. […] SFMC from only one of 21 patients with oJIA produced detectable levels of the anti-inflammatory cytokine IL-10, and none produced detectable levels of IL-4.
as §1
Results are expressed as SI or pg/ml (mean+SD).

[4] = test system: synovial fluid mononuclear cells (SFMC) from patients with oJIA; test: Proliferative response (stimulation index) of SFMC stimulated with antigen for 96 hr; format: cell-based, human; conditions: for ratio SI SFMC/SI PBMC, dnaJ compared with TT: paired PBMC-SFMC samples from oJIA patients
[5] = test system: peripheral blood mononuclear cells (PBMC); test: Proliferative response (stimulation index) of PBMC stimulated with antigen for 96 hr; format: cell-based, human; conditions: 10 healthy subjects vs 21 patients with oJIA
[6] = test system: CD3+CD69+ cells in PBMC and SFMC; test: Evaluation of activated CD3+CD69+ T cells after incubation with recombinant E. coli hsp dnaJ; format: cell-based, human; conditions: p=0.0002
Method: FIG. 1B provides an evaluation of CD69+ T cells from healthy subjects (CTRL) and patients with oJIA following 72 hour incubation with recombinant E. coli hsp dnaJ. Results, expressed as percentage CD3+CD69+ cells, are shown as mean+SD.
To evaluate whether dnaJ-specific T cells were enriched at the synovial sites of inflammation, synovial fluid mononuclear cells (SFMC) from all patients with oJIA were stimulated with dnaJ for 96 hr.

[7] = test system: PBMC and SFMC from healthy controls and patients with oJIA; test: Cytokine production in culture supernatants of PBMC or SFMC stimulated with recombinant E. coli hsp dnaJ for 72 hr; format: cell-based, human
Method: Results, expressed as pg/ml, are shown as mean+SD.
The production of the pro-inflammatory cytokines interferon-gamma (IFNγ) and tumor necrosis factor-alpha (TNFα), and the anti-inflammatory cytokines interleukin-4 (IL-4) and IL-10 was evaluated in culture supernatants of PBMC from healthy controls and in PBMC-SFMC paired samples from patients with oJIA incubated for 72 hr with or without dnaJ.

“QKRAAYDQYGHAAFE (listed as Escherichia coli) [dnaJP1]” was tested, and the “treatment-induced change of T cell cytokine responses” value (RA patients) was “dramatic immune deviation from pro-inflammatory to regulatory-type cytokines”.

In the case of “SGPFFTFSSSFPGHS (listed as Homo sapiens) [Peptide 134, non-homologous human peptide (HSJ1)]”, the “Proliferative responses, extended disease vs persistent o-JIA” value [1] is reported as “significantly lower”, the “% of CTLA+/CD25/CD4 positive cells vs control conditions” value [2] is reported as “higher” and the “IL-10 production, extended disease vs persistent o-JIA” value ([3]; p=0.0012) is reported as “highly significant difference”. The “IFN production, extended disease vs persistent o-JIA” value ([3]; p=0.076) was “border line level of statistical significance”.

B1: dnaJ: recombinant E. coli heat shock protein dnaJ (protein, UniProt P08622 2-376, looked up)
Chaperone protein DnaJ: AKQDYYEILGVSKTAEEREIRKAYKRLAMKYHPDRNQGDKEAEAKFKEIKEAYEVLTDSQKRAAYDQYGHAAFEQGGMGGGGFGGGADFSDIFGDVFGDIFGGGRGRQRAARGADLRYNMELTLEEAVRGVTKEIRIPTLEECDVCHGSGAKPGTQPQTCPTCHGSGQVQMRQGFFAVQQTCPHCQGRGTLIKDPCNKCHGHGRVERSKTLSVKIPAGVDTGDRIRLAGEGEAGEHGAPAGDLYVQVQVKQHPIFEREGNNLYCEVPINFAMAALGGEIEVPTLDGRVKLKVPGETQTGKLFRMRGKGVKSVRGGAQGDLLCRVVVETPVGLNERQKQLLQELQESFGGPTGEHNSPRSKSFFDGVKKFFDDLTR
In the case of B1, the “mean stimulation index (SI) of SFMC vs corresponding PBMC” value ([4]; oJIA patients, 96 hr, p=0.01) is reported as “significantly higher”, the “ratio SI SFMC/SI PBMC, dnaJ compared with TT” value [4] is reported as “significantly (p=0.038) higher” and the “ratio SI SFMC/SI PBMC, dnaJ compared with TT” value ([4]; listed as recombinant dnaJ) is reported as “significantly (p<0.02) greater”. The “Proliferative responses of PBMC, healthy subjects vs oJIA patients” value [5] was “not significantly different”, the “percentage of activated T cells (CD3+CD69+ cells), SFMC with respect to PBMC” value [6] was “significantly higher” and the “cytokine production from PBMC of patients and controls” value ([7]; 72 hr) was “no difference”. The IL-4 levels ([7]; controls and patients, supernatants from PBMC and SFMC) was “below the detection limit”, the “IL-10 production, SFMC vs PBMC” value ([7]; oJIA patients, 72 hr) was “comparable in the two compartments” and the “TNFα production, SFMC vs PBMC” value ([7]; oJIA patients, 72 hr) was “comparable in the two compartments”. The “IFNγ production, SFMC vs PBMC” value ([7]; oJIA patients, 72 hr, p<0.01) was “significantly higher production”.
